PMC8646660 (EMBO Molecular Medicine, 2021)

B1: scFD20 (single-chain variable fragment of FD20) (scFv, V domains shown)
VH: QVQLQQSGAEVKKPGSSVKVSCKASGGTFSSYAFSWVRQAPGQGLEWMGRIIPILGIANYAQKFQGRVTITADISTSTAYMALSSLRSEDTAVYYCAKVEVNIGMDDYYYYYGMDVWGQGTTVTVSS
VL: not shown
notes: also called scFv of FD20; scFv FD20; source: E. coli MC1061, periplasmic release, purified (Ni-NTA)
B2: FD20 (IgG format) (antibody, V domains shown)
VH: QVQLQQSGAEVKKPGSSVKVSCKASGGTFSSYAFSWVRQAPGQGLEWMGRIIPILGIANYAQKFQGRVTITADISTSTAYMALSSLRSEDTAVYYCAKVEVNIGMDDYYYYYGMDVWGQGTTVTVSS
VL: not shown

Columns and labels:
[1] = molecular target: T1, SARS-CoV-2 S receptor-binding domain (RBD), biotinylated (SARS-CoV-2, UniProt P0DTC2, biotin on the Avi tag (enzymatic, BirA)); assay: BLI; conditions: both partners purified
T1 construct: also called wild-type RBD; WT

[2] = molecular target: T1, SARS-CoV-2 S receptor-binding domain …; assay: cell-based or functional assay

Binder	Kd [1] [nM]	neutralisation of SARS-CoV-2 pseudovirus particles (pp), IC50 [2] [nM]	microneutralisation of authentic SARS-CoV-2 hCoV-19/China/CAS-B001/2020, IC50 [2] [nM]
B1	5.6	117	
B2			5.2
